Legend:
[1] = target: T1, recombinant human HER2 (human, UniProt P04626 23-652); assay: SPR by the protocol of Example 12, sample after SEC, against v10013
T1 construct: extracellular domain
Method: (§1) Between 2000 and 4000 RU of anti-human Fc injected at concentration between 5 and 10 μg/ml was immobilized on a CM5 chip using standard amine coupling. […] HER2 dilutions were analyzed in duplicate. Sensograms were fit globally to a 1:1 Langmuir binding model. All experiments were conducted at 25° C.
(§2) The SPR was measured before and after SEC purification.

[2] = target: T1, recombinant human HER2; assay: SPR by the protocol of Example 12, sample before SEC, against v10013
Method: as §1, §2

Fold wrt WT (KD(WT)/KD(mut)) [1]: 7 fold
Fold wrt WT (KD(WT)/KD(mut)) [2]: 8.1 fold
B1: Variant 10014 (antibody, human IgG1, kappa)
heavy: EVQLVESGGGLVQPGGSLRLSCAASGFTFADYTMDWVRQAPGKGLEWVADVNPNSGGSIYNQRFKGRFTLSVDRSKNTLYLQMNSLRAEDTAVYYCARNLGPSFYFDYWGQGTLVTVSSASTKGPSVFPLAPSSKSTSGGTAALGCLVKDYFPEPVTVSWNSGALTSGVHTFPAVLQSSGLYSLSSVVTVPSSSLGTQTYICNVNHKPSNTKVDKKVEPKSCDKTHTCPPCPAPELLGGPSVFLFPPKPKDTLMISRTPEVTCVVVDVSHEDPEVKFNWYVDGVEVHNAKTKPREEQYNSTYRVVSVLTVLHQDWLNGKEYKCKVSNKALPAPIEKTISKAKGQPREPQVYVYPPSRDELTKNQVSLTCLVKGFYPSDIAVEWESNGQPENNYKTTPPVLDSDGSFALVSKLTVDKSRWQQGNVFSCSVMHEALHNHYTQKSLSLSPG
light: not shown
Fc: not shown
notes: also called v10014
